In assay [1] the target is MLL1(3745–3969) SET domain construct containing the WIN motif, AviTag, biotinylated (human) (UniProt Q03164).
Assay [2] concerns the target MLL4(5308–5537) SET domain construct containing the WIN motif, AviTag, biotinylated (human) (UniProt O14686).

Chain of UniProt Q03164 (Q03164 3745-3969): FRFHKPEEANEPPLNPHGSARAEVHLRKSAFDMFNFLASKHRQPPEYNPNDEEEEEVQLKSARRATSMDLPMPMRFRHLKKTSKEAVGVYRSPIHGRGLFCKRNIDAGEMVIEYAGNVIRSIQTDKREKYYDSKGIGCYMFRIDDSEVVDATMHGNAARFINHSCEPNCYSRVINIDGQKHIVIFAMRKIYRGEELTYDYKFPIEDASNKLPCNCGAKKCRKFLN

B1: histone H3 amino terminal peptide substrate (…-Y), unmodified (peptide)
peptide: ARTKQTARKSTGGKAPRY
B1: the KM (H3 peptide) of methyltransferase activity without WRAD, saturating SAM in assay [1] worked out at 430 µM; in assay [2], 251 µM.
